Drawing on paper PMC11190312, this text covers Kd, koff and kon for 1 substance.

Assay [1] deals with SARS-CoV-2 N protein secreted by mammalian Expi293 cells (N-Expi) (SARS-CoV-2) (UniProt P0DTC9). The assay can be described thus: SPR; single cycle kinetics, […]; global fit to 1:1 Langmuir model; […].
Assay [2] addresses SARS-CoV-2 N protein expressed in bacteria (N-Bact) (SARS-CoV-2) (UniProt P0DTC9). Described as above.

Regarding “Recombinant human MASP-2 S618A, full-length, stabilized in proenzyme form”, in assay [1], the Kd turned out to be 13.7 nM, the off-rate (koff) was found to be 0.000172 s⁻¹ and the on-rate constant (kon) is 14400 M⁻¹ s⁻¹. In assay [2], this substance had a Kd of 12.3 nM, a koff of 0.00015 s⁻¹ and a kon of 13900 M⁻¹ s⁻¹.
